Laboratory results reported in US20250154519.

Tests used:
[1] = tested on: AceMYBS1 + AceGBF3 (Actinidia eriantha); assay: cell_activity; details: dual-luciferase, co-expression
[2] = tested on: AceMYBS1 (Actinidia eriantha); assay: cell_activity; details: dual-luciferase, tobacco leaves

## AceGGP3 promoter (2.6 kb, P2660)
[1]
  activity: 6.67 fold
[2]
  activity: 3.74 fold
